The results in this text go back to US20240336673A1 (WEST VIRGINIA UNIVERSITY BOARD OF GOVERNERS ON BEHALF OF …, published 2024).

Assay [1] concerns the target T1, purified recombinant FliC from P. aeruginosa (polyHis-tag FliC protein, gene from P. aeruginosa PAO1) (Pseudomonas aeruginosa PAO1, UniProt P72151 1-488).
T1 construct: also called P. aeruginosa flagellin; purified FliC protein from P. aeruginosa; not shown: polyhistidine tag
T1 sequence: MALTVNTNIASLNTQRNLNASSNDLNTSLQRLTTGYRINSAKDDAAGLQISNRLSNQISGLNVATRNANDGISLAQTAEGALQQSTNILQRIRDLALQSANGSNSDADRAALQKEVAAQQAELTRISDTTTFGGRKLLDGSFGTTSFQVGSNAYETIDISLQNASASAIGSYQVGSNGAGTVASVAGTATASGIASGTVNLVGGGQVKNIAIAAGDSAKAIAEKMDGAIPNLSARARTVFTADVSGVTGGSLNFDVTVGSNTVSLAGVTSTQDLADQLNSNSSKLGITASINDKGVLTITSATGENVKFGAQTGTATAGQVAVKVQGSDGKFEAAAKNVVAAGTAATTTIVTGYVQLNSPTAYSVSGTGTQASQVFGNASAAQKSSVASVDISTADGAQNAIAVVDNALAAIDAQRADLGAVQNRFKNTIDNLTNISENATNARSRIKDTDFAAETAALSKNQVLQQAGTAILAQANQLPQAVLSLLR
The assay is described as follows: direct ELISA of hybridoma supernatant on coated recombinant FliC.

In assay [2] the target is T2, FliC protein at the surface of P. aeruginosa PAO1 (Pseudomonas aeruginosa PAO1, UniProt P72151 1-488).
T2 construct: whole, on cells; Native protein on whole bacteria or in lysates; also called P. aeruginosa PAO1 flagellin; type b flagellin
T2 sequence: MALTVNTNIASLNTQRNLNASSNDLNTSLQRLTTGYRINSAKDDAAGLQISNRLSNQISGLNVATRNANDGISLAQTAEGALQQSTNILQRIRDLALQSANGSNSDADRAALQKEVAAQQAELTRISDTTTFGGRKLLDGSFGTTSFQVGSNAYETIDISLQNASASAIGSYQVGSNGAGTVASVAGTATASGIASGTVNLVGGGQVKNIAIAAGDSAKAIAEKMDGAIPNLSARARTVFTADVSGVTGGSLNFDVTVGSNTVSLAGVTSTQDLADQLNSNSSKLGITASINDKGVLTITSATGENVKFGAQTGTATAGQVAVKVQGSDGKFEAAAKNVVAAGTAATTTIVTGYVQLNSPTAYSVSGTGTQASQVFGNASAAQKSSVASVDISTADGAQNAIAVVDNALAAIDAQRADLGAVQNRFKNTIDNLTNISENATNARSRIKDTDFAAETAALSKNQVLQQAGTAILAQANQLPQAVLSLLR
The assay is described as follows: direct ELISA of hybridoma supernatant on whole P. aeruginosa PAO1.

B1: WVDC-2109 (antibody, V domains shown)
VH: EVQLQESGAELVKPGASVKLSCKASGYTFTSYWMHWVKQRPGQGLEWIGMIRPNSGSTNYNEKFKSKATLTVDKSSSTAYMQLSSPTSEDSAVYYCARRGYGSSYGYYAMDYWGQGTSVTVSS
VL: DIVVTQTTSSLSASLGDRVTISCRASQDISNYLNWYQQKPDGTVKLLINYTSRLNSGVPSRFSGSGSGTDYSLTISNLEQEDIATYFCQQGNTLPWTFGGGTKLE
notes: also called anti-FliC mAb; mAb WVDC-2109
Regarding B1, the binding result in assay [1] and in assay [2] was “binds” in each case.
